Measurements as given in patent publication US20070298997A1, “Compounds useful in treating diabetic microvascular complications and age-related macular degeneration” (priority 2003, published 2007).

How the values were obtained:
TGF-β = experiment: TGF-β-induced fibronectin secretion in HMC (ELISA); format: cell-based, human; settings: 5 ng/ml TGF-β, 3 days
Protocol: FIG. 12 illustrates that kallistatin blocks TGF-β-induced fibronectin over-production in HMC. HMC were treated with 5 ng/ml TGF-β without or with different concentrations of kallistatin for 3 days. Fibronectin secreted into the medium was measured by ELISA (mean±SD, n=3). TGF-β induced significant over-production of fibronectin.
Kallistatin blocks the function of TGF-β, a major pathogenic factor in DN. TGF-β is a major inflammatory and fibrosis mediator. It plays a major role in the development of DN. To explore the role of kallistatin in DN, the effect of kallistatin in blocking TGF-β activity in kidney cells was determined. HMC were treated with 5 ng/ml TGF-β for 3 days without or with different concentrations of kallistatin.

VEGF = VEGF in the conditioned medium of RCEC by ELISA; format: cell-based, bovine; settings: RCEC under hypoxia, 24 h, 5-80 nM
Protocol: FIG. 9 illustrates down-regulation of VEGF expression by kallistatin. As increased VEGF levels in the retina and vitreous play a key role in the development of retinal neovascularization, the effect of kallistatin on the expression of VEGF in cultured RCEC was determined. VEGF secreted into the conditioned medium was measured by VEGF ELISA and normalized by total protein concentration in the medium.
Measurement of VEGF in the conditioned medium of RCEC by ELISA: RCEC were seeded in T75 flasks in endothelial cell growth medium and cultured in a CO2 incubator to reach 60-70% confluency. The cells were washed 3 times with PBS and the growth medium replaced by a serum-free medium containing bFGF (GIBCO-BRL, Gaithersburg, Md.). Kallistatin was added to the medium to various concentrations and incubated with the cells for 24 h under normoxia or hypoxia (in a chamber that was perfused with a mixture of 95% N2+5% CO2). The conditioned medium was harvested for VEGF ELISA and the cells were used for Western blot analysis. The conditioned medium was centrifuged and the protein concentration in the supernatant was measured with BioRad protein assay. VEGF concentration was measured using a VEGF ELISA kit (R& D systems, Minneapolis, Minn.) and normalized by total protein concentration in the medium.

VEGF binding to RCEC = experiment: VEGF binding assay (125I-VEGF); set-up: species or system bovine; settings: 1 h, 0.5, 5 and 50 μg competitor (VEGF:kallistatin 1:5, 1:50, 1:500)
Protocol: FIG. 8 illustrates inhibition of VEGF binding to RCEC by kallistatin. […] To determine the competition between kallistatin and VEGF in RCEC binding, ^125I-VEGF was added to RCEC together with 0.5, 5 and 50 μg of unlabeled kallistatin to result in VEGF:kallistatin molar ratios of 1:5, 1:50 and 1:500, respectively.
VEGF binding assay: VEGF (PeproTech, Inc., Rocky Hill, N.J.) was labeled with 125I using the Chloromine T ^125I Labeling Kit (ICN Pharmaceuticals, Inc. Costa Mesa, Calif.) following a protocol recommended by the manufacturer. For the binding assay, RCEC were seeded in 12-well plates and cultured until 80% confluency was reached. The culture medium was replaced with serum-free medium. ^125I-VEGF was added to the medium, 2.5×10^5 CPM/well with and without different concentrations of kallistatin or recombinant plasminogen kringle 5 (K5) and incubated with the cells for 1 h. The medium was removed and cells washed three times with PBS. The cells were then lysed by the addition of 0.35 ml 10% SDS. The cell lysates were collected, and the 125I-VEGF bound to RCEC was quantified by a gamma counter.

[1] = system: Retinal capillary endothelial cells (RCEC); experiment: Quantification of viable cells by MTT assay, RCEC; format: cell-based, bovine
Protocol: FIG. 2 illustrates the specific inhibition of endothelial cell proliferation by recombinant kallistatin. RCEC were treated with recombinant kallistatin at concentrations of 5,10, 20, 40, 80 and 160 nM for 72 h. Viable cells were quantified by MTT assay. […] This effect appeared to be kallistatin concentration-dependent, with an apparent IC50 of 50 nM (FIG. 2) which is similar to that of K5, a known angiogenic inhibitor (Zhang et al., 2001).
FIG. 7 illustrates the effects of B1 and B2 kinin receptor antagonists on RCEC. In order to test whether the anti-angiogenic activity of kallistatin is via reducing kinin production by inhibiting kallikrein activity, RCEC were treated with 5 μM des-Arg^9-[Leu^8]-bradykinin, a specific antagonist of the B1 kinin receptor or Hoe-140, a specific B2 kinin receptor antagonist, in the presence or absence of 40 nM kallistatin for 48 h, and viable cells were quantified by MTT assay.
Quantification of viable cells: Cells were plated in 12-well plates in triplicate and cultured in the growth medium until they reached 60-70% of confluency. The culture medium was replaced with a medium containing 1% fetal bovine serum (FBS). Recombinant kallistatin was added to the cover medium to various concentrations and incubated with the cells for 72 h. The viable cells were quantified by the MTT (3-[4,5-dimethylthiazol-2-yl]-2,5-dephenyl tetrazolium bromid, Roche, Mannheim, Germany) assay following a protocol recommended by the manufacturer. The effect of kallistatin on viable cell number was analyzed using Student's t test.

B1: kallistatin: Recombinant His-tagged rat kallistatin (serpin, SEQ ID NO:1) expressed in E. coli and affinity-purified (protein, listed as Homo sapiens)
chain: DGILGRDTLPHEDQGKGRQLHSLTLASINTDFTLSLYKKLALRNPDKNVVFSPLSISAALAILSLGAKDSTMEEILEVLKFNLTEITEEEIHHQGFGHLLQRLSQPEDQAEINTGSALFIDKEQPILSEFQEKTRALYQAEAFVADFKQCNEAKKFINDYVSNQTQGKIAELFSELDERTSMVLVNYLLFKGKWKVPFNPNDTFESEFYLDEKRSVKVPMMKIKDLTTPYIRDEELSCSVLELKYTGNASALFILPDQGKMQQVESSLQPETLKKWKDSLRPRIISELRMPKFSISTDYNLEEVLPELGIRKIFSQQADLSRITGTKNLHVSQVVHKAVLDVDETGTEGAAATAVTAALKSLPQTIPPLNFNRPFMLVITDNNGQSVFFMGKVTNPM
modifications: His tag
TGF-β-induced fibronectin secretion (TGF-β): blocked the TGF-β-induced fibronectin secretion in a concentration-dependent manner | TGF-β-induced fibronectin secretion (TGF-β; listed as Kallistatin): blocked the TGF-β-induced fibronectin production in a concentration-dependent manner | VEGF secreted into the conditioned medium (VEGF): reduced VEGF in the medium | VEGF bound to RCEC (VEGF binding to RCEC): decreased in a kallistatin concentration-dependent manner | viable cells vs control ([1]; 5 nM, 72 h, P<0.05): significantly fewer viable cells than the control cells | viable cell numbers, % of the control ([1]; 40 nM, 48 h, P<0.01): approximately 50 % of the control | IC50 ([1]; 72 h, read-out: apparent IC50, viable cells): 50 nM
